According to the DeepSol protein solubility set:

Assay: soluble on expression in E. coli; label from the status in PepcDB or PDB records

| Sequence | soluble on expression in E. coli |
| --- | --- |
| MGSDKIHHHHHHDKAYTDAESYTKGLHKIYSVWALSGQDGSSSSDISGLDAGNTALLRCWWTLQEQPTDEMKNAWNDAWCTEVNYMTWTTNKVEPIEGVYQRCMYIVALVNEFLKNIPNAPESIDKESYIAQARFNRAFAYYVLMDMFALPPFITEKNYSIEPAPLSREDLFNWIEAELNEIKPNLPSPRSEYGVADQAVASALLARMYLNAEIYTGKARYTECINACNEVIKAGYQLADNYADLFKADNGENPDTKKEIIYPIIFDGDKTQSWGMAAIIIGARGAEDKDVLLAHSGVDQGWAGFRATSNLVHLFDFQNDEEPKASEIQDKRGIFYDKGRSIDITSSVSGTFETEGWSVFKFSNLNSNGQPGKNTLWVDTDFPMFRLGDIYLMYAEAVARGGEGSKASAVEYINALRKRAYGDDKHNISENWLEENNFRNLLDERGRELYWEGIRRTDLVRFDLLTSGSYTWDFKGGINTGVGVNKRYNVYPIPVTDLTVNGNLQQNEGY | not soluble |
| MGSDKIHHHHHHDLTEEIHSSVIAENYYNNAGEVMAAMMRPWGHFCGTMQVAQSPWSCNELSSDCAAWPQKGRHGYDNGDWIRLHRHQWIPTDGQVVDAWKKLFEGIGYANNFLTDTENIDFEALQVPMSKAQAQAEMRVYRAYCYWYVMDMFGTAPICEKIGEINPSSKSRAELFAWIEKELNESIPSLSESKTETYGRVSKWGAYALLARLYLNAEIYTGQARWDDCIAACDELAKGGFALDKKWNDTFRADNDKRSTEIIWSIVYDEVYAKGMGWYQRWLHYAHQTGWDLQSGPWNGLVTQPTFYDSFADNDLRKIEGFLIGKQYPRKVDENGNYYYDTTAEPLKGSEEYNGQDLVFVNYIKSMTEGEENSGARSIKYEIQPGTTGDMNNDWVMFRYSEVIYNKAEALMRKNGGKATQEVVDMINSVRQRSFKAEDWEKAKYTTATLTMDEFLAEKGREFAFEGIRRTDLVRFNKFVTTSWWDKTASNEPKRNIFPIPQRQLDANANLSPNEANSLF | not soluble |
| MGSDKIHHHHHHENLYFQGMGTDKFNNIKIDKYENLINVLKTGDIFLCSGNYLVSKLIKKVSESMFSHTGIIVKWGEHTLIMESVEDDGVRIVPLEHYIKNYENSNNRYNGSLFIARHELLQNVNDDSEMIRNLIKVGFSLLNSGYDKNEIAQIVARIGLGIGRHEDNNEYICSEFVNECFKKIGVEFLTDSEGFIFPEHIAADHHVLPIAQIE | soluble |
| MGSDKIHHHHHHENLYFQGMLNFTVGPVMSSEEVRAIGAEQVPYFRTTEFSSTMLENEKFMLEYAKAPEGSKAVFMTCSSTGSMEAVVMNCFTKKDKVLVIDGGSFGHRFVQLCEIHEIPYVALKLEHGKKLTKEKLYEYDNQNFTGLLVNVDETSTAVLYDTMMIGEFCKKNNMFFVCDCVSAFLADPFNMNECGADVMITGSQKVLACPPGISVIVLAPRGVERVEKSKVRTMYFDLKDALKNQERGQTPFTPAVGILLQINERLKEIKKHGGADAEVARIASQAADFRAKIKDLPFELVSESPANGVTSVHPTTANAYDIFLKLKDEYGIWICPNGGEMKDTIFRVGHIGALTHEDNTTLVNAFKDLQKRNLL | soluble |
| MGSDKIHHHHHHGCSDSMTEESDSEQRIPIVFGTQVATRAVVENNKEGMDNFTLWGWVRESDGPKLFFDAVPVTPSGNYGEKRFWAVGRPYGFYAVHPEKMKENNIATEVSCNDKGELRVTGFDSSEMGKGAVDLMTAAKTDVVYEGGGMMAPVLLAFKHELAQVKFTVCTGEKQAEVSDIRLLGVDYKGDLLWTPEESTWQNRINCTEEGTPFVRSESVRIEAGSSVTVLDSVLLLPQPVTEHVAVTFKYAYAGKPLSEAKEAMVYLDVAQTTEWIKSSTYHYKITLPAGDADITVKVSVGDWDSRDISADW | not soluble |
| MGSDKIHHHHHHGCSDVNQLLGNEESVDYKSTRRGDPLSIPPDLTQANNDPRYKAPASGTATYSQFQQQGLQQQASAGQNTNVLPERADMRVERDGDLRWLVIERPPEQLFPKVVDFWTDTGFTVSVNNPQAGIIETDWAENRAKIPESWLRQVLGSVLETAWDSGEREKFRTRVERVNGHTEIYITHNQMLEKRVGSDGGQVQWTHGKEDPGLNAAMLARLMVYLGTDVDAARKLVAQAEAAPQAPKVQSVRAEGAMLVVDESFDRAWRRVGVALDSGGFAVDDRDRSAGEYFVRYVDTDTGAQNEQPGFFSRLFSSDKKAQAPQYRIRLTGSGTQTQVTVLDANGQRDSSATAQRMLSVLKDKMV | not soluble |
| MGSDKIHHHHHHIFSSCTDDFEKLNTSNIQVDPADLPFAAQCTEPMTYCYPPQQNMFQFWTNLTIDLYGGYFMTPNGNFTNGDMGENRGHSGGMYENYYLHIFNNTRRIIAQCDASGERGLSGVMRIVQAYGTLMTTDAYGPIPYSSILSGENEVYFEFDSQKDLYKAMLEDLSTAITDISAMGADEIAKLKSFDCWCNGDKDLWVKIANTMKLRMALRLSKRETEAGNAGMNLKAIATEAAQNTLATVNKDILIDKSLENEMWLMFNWGDCGFNANLVTIMSGTKDPRQPLYMTLNTGDIKNEAGTTTVAANSQYLGIRFASGLPAKPNSWGNFSGWIQGNNGSSYSMPLPIMKAAEAYFLLAEAKLRWDIGSESVKNLYENGIRVSMTNELAYRGAYAGIKEYPEGAVDAYINGTSTQIDYTDPIKAELSTPAVNKLSVKWDESASNEEKLERIITQKWLALFPLSTEGWAEQRRTGYPRFFPAFVNESNGAVNTEEGVRRVIYSSQAYDANAKGVEGGIKLLDEENSSKFGISGDKGGTHLWWDNADKGNF | not soluble |
| MGSDKIHHHHHHIWCTPTRLARPDRRGKAIRTIGMADGTIPMNAKPTEEISVREVFGIDTPMLVKGFAERSDRVPEIDQTYKFDPDTTLAILAGFSHNRRVMVQGYHGTGKSTHIEQVAARLNWPCVRVNLDSHISRIDLIGKDAIKLRDGKQVTEFHEGILPWALRNPVAIVFDEYDAGRADVMFVIQRVLEHDGKLTLLDQNEIITPNPCFRLFATANTVGLGDTTGLYHGTQQINQAQMDRWSLVATLNYLSHDAETMIVLSKAPHYNTEKGRKQVSQMVTVADLTRTAFMNGDLSTVMSPRTVINWAQNAEIFRDVGYAFRLTFLNKCDELERQTVAEFYQRCFDEELPESAASTSLG | not soluble |
| MGSDKIHHHHHHKDNTKVIAHRGYWKTEGSAQNSIRSLERASEIGAYGSEFDVHLTADNVLVVYHDNDIQGKHIQSCTYDELKDLQLSNGEKLPTLEQYLKRAKKLKNIRLIFELKSHDTPERNRDAARLSVQMVKRMKLAKRTDYISFNMDACKEFIRLCPKSEVSYLNGELSPMELKELGFTGLDYHYKVLQSHPDWVKDCKVLGMTSNVWTVDDPKLMEEMIDMGVDFITTDLPEETQKILHSRAQ | not soluble |
| MGSDKIHHHHHHKEKKADTYVTKVTDLTGEEEQVLKLEYDRDGKIIKYGDTPVRYEGDQITIGQMNCLNTGNKLCNVTFQIGKGKARESRARCMLKVGEEVYEADKQTVYDYKGDTIFINSDYRATSDYRFLKKVQGKYVFDQLGRLKEVMTVFTEANDSVSSCHTYYNYDNNINYQANLNLQAYVIDYDGVDSFFYFLLNLGQLRNRTALPNDIGYCMNHGLSTYNVHANYRLDDENPVRIEVLYNYTKLLSRIDLSYNPLN | not soluble |
| MGSDKIHHHHHHLAIFIQYIDTLKLVSIGKNDMYSIEQLEAFVATVKTGSFSSAARALNKAQSVISQHVINLEIDCNSELFDRSGRYPQLTPAGKKLLPHAQVLLSQHQRLRDCAQSLDQQAISELTIGLDEGIPLQKLFNIINELEAKFPTITLEFLTASSIDIIDMIDTERAVTGIIFSELTIPAHIDFESIGSIKFDMYVASTHLLAQQIYDNLAHLKLHRQLLIRSRNTKSSSFQFAISPDVWYADNYYILLELALQGHGWCLLPNHIANHYVDSGQLVMLPSEFKEIGWQANVDVIQHHRYSHEPVFKQLRHSLRQLLTYSA | not soluble |
